Molecular target: B38-CAP
Experiment: SEC

B38-CAP (enzyme)
stoichiometry N: 2

From publication PMC8930179
